Assay results published in patent publication US20260176627A1 (University of Washington, published 2026).

Target: T1, NLS-λN-GFP1-10
T1 construct: also called LambdaN-GFP1-10; second protein of pCMV::GFP11-NLS-MCP-IRES-NLS-λN-GFP1-10; not shown: my translati
Assay: split-GFP complementation, fluorescence in transfected HEK293T cells

B1: GFP11-NLS-MCP (other, not shown: small tags and cut ends)
chain: MRDHMVLHESVNAAGITASNFTQFVLVDNGGTGDVTVAPSNFANGVAEWISSNSRSQAYKVTCSVRQSSAQKRKYTIKVEVPKVATQTVGGVELPVAAWRSYLNMELTIPIFATNSDCELIVKAMQGLLKDGNPIPSAIAANSGLY
notes: linker and NLS are known only from the DNA; also called first protein of pCMV::GFP11-NLS-MCP-IRES-NLS-λN-GFP1-10; Split-GFP-RNAadaptor (one of the pair)
Does B1 bind?
Result: binds
